No end group written: not given here.
T1: 8-Actin-C (beta-actin C-terminal peptide)
T1 chain: SIVHRKC(Cy3B)F

T2: random peptide (scrambled pVIc) (synthetic)
T2 chain: SFRRCGLRQVK

T3: pVIc (C-terminal peptide of pVI) (Human adenovirus 2, UniProt P03274)
T3 chain: GVQSLKRRRCF


Key:
[1] = molecular target: streptavidin-Alexa Fluor 546 (UniProt P22629 P22629:25-183); test: FRET; streptavidin alone does not bind; conditions: tags: Alexa Fluor 546; Invitrogen; chain copies: 4; label: 5'-fluorescein
From the text: The relative fluorescence intensity is the fluorescence intensity at a specific concentration of acceptor divided by I₀ which is the initial fluorescence intensity, i.e. the intensity of the donor in the absence of acceptor. The line through the closed circles represents the nonlinear regression fit of the experimental data to a 1:1 ligand-receptor model. […] Both curves were corrected for inner filter effects, which were less than 10% at the highest concentration of acceptor.
Steady state fluorescence measurements were measured with an ISS PC1 spectrofluorometer (ISS, Champaign, Ill.) with a 300-W xenon arc lamp and 19 amp lamp current. […] The solution was mixed and allowed to equilibrate for 2 minutes before measuring the fluorescence intensity for a maximum of 10 seconds (corresponds to an average of eleven measurements).

[2] = molecular target: (pVIc-biotin):streptavidin complex (Human adenovirus 2 / Streptomyces …, UniProt P03274;P22629 P03274:240-250,P22629:25-183); test: FRET quenching, 20 mM Na phosphate pH 7.5, 0.05% DDM; conditions: tags: pVIc Cys10' PEG-biotin, streptavidin-Alexa Fluor 546 (Invitrogen); label: 5'-fluorescein
[3] = molecular target: T1, 8-Actin-C (beta-actin C-terminal …); test: FP; Cy3B-peptide, pH 7; conditions: protein: synthetic; tags: synthetic peptide; Cy3B at Cys7'; label: 5'-fluorescein (unlabeled with Cy3B-labeled protein)
[4] = molecular target: T2, random peptide (scrambled pVIc); test: FP; scrambled pVIc; does not slide on DNA; conditions: tags: Cy3B at Cys5'; label: 5'-fluorescein (unlabeled with Cy3B-labeled protein)
[5] = molecular target: T3, pVIc (C-terminal peptide of pVI); test: FP; Cy3B-pVIc, 20 mM Hepes pH 7, 0.025% DDM, 10 mM NaCl; 7 bp site; conditions: protein: synthetic; tags: synthetic peptide; Cy3B at Cys10' in pH 7 and sliding assays; label: 5'-fluorescein (unlabeled with Cy3B-labeled protein)
[6] = molecular target: pVI (precursor to protein VI) (Human adenovirus 2, UniProt P03274 P03274:1-250); test: FP; 0.02 M NaCl, pH 8; 155, 328, 449, 1044 nM at 0.03, 0.04, 0.05, 0.06 M NaCl; 2.9 ion pairs; conditions: label: 5'-fluorescein (unlabeled with Cy3B-labeled protein)
Chain of pVI (precursor to protein VI) (P03274 whole entry, one chain of several): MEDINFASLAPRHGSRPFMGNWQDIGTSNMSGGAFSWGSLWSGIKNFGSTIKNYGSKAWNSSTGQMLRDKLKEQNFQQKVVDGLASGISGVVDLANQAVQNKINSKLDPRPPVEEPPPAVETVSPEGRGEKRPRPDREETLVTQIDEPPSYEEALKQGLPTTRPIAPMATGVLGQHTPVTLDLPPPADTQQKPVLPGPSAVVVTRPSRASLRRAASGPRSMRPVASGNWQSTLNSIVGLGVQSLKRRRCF

Chain of (pVIc-biotin):streptavidin complex (P22629 25-183, one chain of several): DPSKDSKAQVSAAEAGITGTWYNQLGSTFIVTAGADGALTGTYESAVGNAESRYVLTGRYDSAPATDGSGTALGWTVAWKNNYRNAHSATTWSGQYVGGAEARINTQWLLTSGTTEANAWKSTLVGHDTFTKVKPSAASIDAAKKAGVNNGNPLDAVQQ
Chain of streptavidin-Alexa Fluor 546 (P22629 25-183, one chain of several): as above

Row | Binder | binding result [1] | Kd [2] [nM] | Kd [3] [nM] | Kd [4] [nM] | Kd [5] [nM] | Kd [6] [nM]
1 | 18-mer dsDNA (dsDNA) DNA 1: CAGGAAACAGCTATGACC DNA 2: GGTCATAGCTGTTTCCTG | no binding | 35 | – | – | – | –
2 | 12-mer dsDNA (dsDNA) DNA 1: GACGACTAGGAT DNA 2: ATCCTAGTCGTC | – | – | 5 | 646 | 264 | 55

From patent publication US20150210738, “MOLECULAR SLEDS AND USES […]” (The Broad Institute, Inc., published 2015)
